Substitutions are numbered along the chain they refer to. Names and notes keep the numbering of the source. Like-named read-outs stand apart in the source and are kept apart here.

The target of assay [1] is CLDN18.2 endogenously expressed on SNU620 gastric cancer cells (UniProt P56856). The experiment in a line: FACS Exp. 3, SNU620 cells.
For assay [2], the target named is T1, human Claudin 18.2 (CLDN18.2) (human, UniProt P56856-2 1-261). Put plainly: FACS Exp. 1, MFI ratio CHO-18.2 over CHO-18.1.
Assay [3] has as its target T1, human Claudin 18.2 (CLDN18.2). The experiment in a line: FACS Exp. 2, MFI ratio CHO-18.2 over CHO-18.1.
The target is the same in assay [4]. Put plainly: cell-based or functional assay.
The target is the same in assay [5]. Put plainly: cell-based or functional assay. The source holds these as a separate data set.
Assay [6] shares this target. Put plainly: cell-based or functional assay. The source holds these as a separate data set.
The target is the same in assay [7]. The experiment in a line: cell-based or functional assay. The source holds these as a separate data set.
In assay [8] the target is T2, CLDN18.2 endogenously expressed on SNU620 gastric cancer cells (UniProt P56856-2 1-261, limits assumed).
T2 construct: whole, on cells; also called SU620
Put plainly: FACS Exp. 3, SNU620 cells.

Assay [9] addresses T1, human Claudin 18.2 (CLDN18.2). Put plainly: FACS on CHO-CLDN18.2 cells.
The target is the same in assay [10]. Put plainly: FACS on CHO-CLDN18.2 cells. This is another data set of the same source.
The target is the same in assay [11]. Put plainly: FACS on CHO-CLDN18.2 cells. The source holds these as a separate data set.

As for human IgG1 isotype control (antibody), the MFI SNU620 (@30 ug/ml) in assay [1] turned out to be 15.7 MFI. Further, the MFI CHO-18.2/CHO-18.1 (@30 ug/ml) in assay [2] was determined as 1.1; in assay [3], 1.

B1: 282A12F3 (T62A) (antibody, human IgG1, kappa, V domains shown)
VH: QVQLKESGPVLVQPSQTLSLTCTVAGFSLTSYNVYWVRQPPGKGLEWMGVIWNTGATRYNSALKSRLSISKDTSKSQVFLKMNSLQTEDTATYYCARDSAMPAIPFAYWGQGTLVTVSS
VL: DIVMTQSPSSLAVSAGETVTINCKSSQSLFGSVRQKNYLAWYQQKPGQSPKLLIYLASTRESGVPDRFIGSGSGTDFTLTISSVQAEDLAKYYCQQYYDIPWTFGGGTKLELKR
notes: chimeric human IgG1, PTM site removed; also called 282A12F3-VH-NSA (T62A); 282A12 (T62A)
On to B1, for which the “ADCC EC50, NCI-N87-18.2 cells, FcR-TANK effectors” value in assay [4] stood at 73.2 nM. Further, in assay [5], the “% specific cytotoxicity @ 6.67 nM, NUGC4-CLDN18.2, PBMC” value turned out to be 21% and the “ADCC EC50, NUGC4-CLDN18.2 cells, PBMC (1 donor)” value was 9.52 nM. For the same molecule, in assay [6], the “% ADCC @ 6.67 nM, NCI-N87-CLDN18.2, FcR-TANK” value came out at 14.6% and the “ADCC EC50, NCI-N87-CLDN18.2, FcR-TANK” value stood at 2.25 nM. The “CDC EC50, human serum, CHO-CLDN18.2” value in assay [7] is 10.4 nM. Besides, in [8], the “MFI_SNU620 (@30 ug/ml)” value came out at 1520 MFI. The response in assay [9] was half-maximal at 4.45 nM (EC50). Besides, in assay [2], the “MFI_CHO-18.2/CHO-18.1 (@30 ug/ml)” value was determined as 811. In addition, in [3], the “MFI_CHO-18.2/CHO-18.1 (@30 ug/ml)” value came out at 768.

B2: reference antibody 175D10 (xi175D10) (antibody, human IgG1, kappa, V domains shown)
VH: QVQLQQPGAELVRPGASVKLSCKASGYTFTSYWINWVKQRPGQGLEWIGNIYPSDSYTNYNQKFKDKATLTVDKSSSTAYMQLSSPTSEDSAVYYCTRSWRGNSFDYWGQGTTLTVSS
VL: DIVMTQSPSSLTVTAGEKVTMSCKSSQSLLNSGNQKNYLTWYQQKPGQPPKLLIYWASTRESGVPDRFTGSGSGTDFTLTISSVQAEDLAVYYCQNDYSYPFTFGSGTKLEIKR
notes: Fc variant D356/L358; also called chimeric 175D10
In the case of B2, the “ADCC EC50, NCI-N87-18.2 cells, FcR-TANK effectors” value in assay [4] stood at 96.4 nM. Besides, the “% specific cytotoxicity @ 6.67 nM, NUGC4-CLDN18.2, PBMC” value in [5] came to 16.8%. In assay [5], the “ADCC EC50, NUGC4-CLDN18.2 cells, PBMC” value worked out at 9.21 nM. Besides, the “% ADCC @ 6.67 nM, NCI-N87-CLDN18.2, FcR-TANK” value in assay [6] turned out to be 11.9%. The “CDC EC50, human serum, CHO-CLDN18.2” value in assay [7] was 2.26 nM. In addition, the EC50 (in general, the midpoint of the concentration-response curve) in assay [9] came to 9.32 nM; in assay [10], 7.52 nM; in [11], 7.24 nM. The figures for the “MFI_CHO-18.2/CHO-18.1 (@30 ug/ml)” value in assay [2] and in assay [3] were 1030 and 1390, respectively.

B3: hz282-1 (antibody, V domains shown)
VH: QVQLQESGPGLVKPSETLSLTCTVSGFSLTSYNVYWIRQPPGKGLEWIGVIWNTGATRYNSALKSRVTISVDTSKNQFSLKLSSVTAADTAVYYCARDSAMPAIPFAYWGQGTLVTVSS
VL: DIVMTQSPDSLAVSLGERATINCKSSQSLFGSVRQKNYLAWYQQKPGQPPKLLIYLASTRESGVPDRFSGSGSGTDFTLTISSLQAEDVAVYYCQQYYDIPWTFGGGTKVEIK
notes: humanized IgG; constant regions not specified; also called hz282-l
Consider B3, for which, in assay [1], the MFI SNU620 (@30 ug/ml) worked out at 69.6 MFI. Also, in assay [2], the “MFI_CHO-18.2/CHO-18.1 (@30 ug/ml)” value worked out at 262.

B4: hz282-9 (antibody, V domains shown)
VH: B3 VH
VL: DIQMTQSPSSLSASVGDRVTITCKSSQSLFGSVRQKNYLAWYQQKPGKAPKLLIYLASTRESGVPSRFSGSGSGTDFTLTISSLQPEDFATYYCQQYYDIPWTFGGGTKVEIK
notes: humanized IgG; constant regions not specified
As to B4, the MFI SNU620 (@30 ug/ml) in assay [1] was determined as 308 MFI. Moreover, the “MFI_CHO-18.2/CHO-18.1 (@30 ug/ml)” value in assay [2] turned out to be 163.

B5: hz282-5 (antibody, V domains shown)
VH: B3 VH
VL: B3 VL with P49S, V91K
notes: as for B4
B5 came in with an MFI SNU620 (@30 ug/ml) in assay [1] of 135 MFI. Also, the “MFI_CHO-18.2/CHO-18.1 (@30 ug/ml)” value in assay [2] came out at 310.

B6: hz282-17 (antibody, V domains shown)
VH: B3 VH
VL: B4 VL with Q3V, T22N, A49S, S66D, T91K
notes: as for B4
B6 returned an MFI SNU620 (@30 ug/ml) in [1] of 176 MFI. Moreover, the “MFI_CHO-18.2/CHO-18.1 (@30 ug/ml)” value in assay [2] came out at 249.

B7: hz282-13 (antibody, V domains shown)
VH: B3 VH
VL: B4 VL with A49S, S66D, T91K
notes: as for B4
B7 yielded an MFI SNU620 (@30 ug/ml) in assay [1] of 144 MFI. Besides, the “MFI_CHO-18.2/CHO-18.1 (@30 ug/ml)” value in [2] amounted to 201.
